The values below come from publication PMC11479839.

Data set [1] addresses T1, N-myc;MAX (human;human, UniProt P04198;P61244 1-464;1-160, |). Kind of data set: fluorescence anisotropy. A general note: Fluorescence polarisation rises when a labelled molecule tumbles more slowly, as on binding a larger partner.
The target of data set [2] is T1, N-myc;MAX. Kind of data set: fluorescence anisotropy. The source holds these as a separate data set.

Where two headings read alike, the source gives them in different places.

The Kd is the constant that tells how readily two partners part at equilibrium. Low values mean higher affinity, high ones lower affinity.

T1 sequence (P04198 whole entry, chain 1 of 2): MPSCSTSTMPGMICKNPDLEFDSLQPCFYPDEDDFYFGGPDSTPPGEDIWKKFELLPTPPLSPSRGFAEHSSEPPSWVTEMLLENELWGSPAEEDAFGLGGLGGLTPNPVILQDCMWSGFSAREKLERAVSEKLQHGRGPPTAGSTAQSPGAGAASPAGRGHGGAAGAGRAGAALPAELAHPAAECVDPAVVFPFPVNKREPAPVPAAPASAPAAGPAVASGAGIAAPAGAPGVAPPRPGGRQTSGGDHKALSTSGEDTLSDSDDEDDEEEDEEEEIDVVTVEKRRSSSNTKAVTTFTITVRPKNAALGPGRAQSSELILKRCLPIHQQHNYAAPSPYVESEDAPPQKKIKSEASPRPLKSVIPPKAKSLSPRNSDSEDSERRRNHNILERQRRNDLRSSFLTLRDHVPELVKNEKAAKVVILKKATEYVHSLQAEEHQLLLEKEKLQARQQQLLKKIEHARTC
T1 sequence (P61244 whole entry, chain 2 of 2): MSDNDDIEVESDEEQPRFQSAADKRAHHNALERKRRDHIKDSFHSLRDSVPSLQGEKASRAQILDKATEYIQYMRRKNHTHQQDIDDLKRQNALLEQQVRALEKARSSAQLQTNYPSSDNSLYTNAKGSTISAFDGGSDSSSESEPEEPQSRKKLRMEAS

B1: 1Ebox (dsDNA)
DNA 1: AGCTTAACTGACCACGTGGTCAACTA
DNA 2: TAGTTGACCACGTGGTCAGTTAAGCT
As for B1, the Kd in the data set with N-myc;MAX [1] is ~150 nM.

B2: 1 NC Ebox CATATG (table: NC Ebox-TC; text: NCE-TA) (dsDNA)
DNA 1: AGCTTAACTGACCATATGGTCAACTA
DNA 2: TAGTTGACCATATGGTCAGTTAAGCT
As for B2, the Kd in the data set with N-myc;MAX [2] is ~735 nM.

B3: 1 NC Ebox CATCTG (table: NC Ebox-TA; text: NCE-TC) (dsDNA)
DNA 1: AGCTTAACTGACCATCTGGTCAACTA
DNA 2: TAGTTGACCAGATGGTCAGTTAAGCT
On to B3, for which the Kd with N-myc;MAX [2] is ~655 nM.
